Assays:
[1] = biological target: rabbit skeletal actin filaments (rabbit) (UniProt P68135)
[2] = biological target: rabbit skeletal actin filaments (rabbit) (UniProt P68135); remark: listed apart in the source
[3] = biological target: pyrene-labeled rabbit skeletal actin filaments (rabbit) (UniProt P68135); assay: other fluorescence titration; stopped-flow, quenching of pyrene-actin fluorescence; 0.05-0.3 μM EGFP-M15-2IQ mixed with 0.5-3 μM pyrene actin; nucleotide-free (apyrase-treated); apparent rate constants from linear fit of kobs against [actin], KD calculated as k-6/k+6; 20-mM Mops (pH 7.0), 100-mM KCl, 5-mM MgCl2, 0.1-mM EGTA, 20 °C
[4] = biological target: pyrene-labeled rabbit skeletal actin filaments (rabbit) (UniProt P68135); assay: other fluorescence titration; stopped-flow, quenching of pyrene-actin fluorescence; 0.05-0.3 μM EGFP-M15-2IQ mixed with 0.5-3 μM pyrene actin; with saturating ADP (0.5 mM in the text, 1 mM in the legend), apyrase omitted; apparent rate constants from linear fit of kobs against [actin], KD …; 20-mM Mops (pH 7.0), 100-mM KCl, 5-mM MgCl2, 0.1-mM EGTA, 20 °C

actin-activated steady-state ATPase (NADH assay, 10-mM KCl, 20 °C), K ATPase; myosin from Sf9 coexpressing UNC45A (baculovirus) [1] [mM]	actin-activated steady-state ATPase (NADH assay, 10-mM KCl, 20 °C), K ATPase; myosin from Sf9 coexpressing UNC45B (baculovirus) [1] [mM]	actin-activated phosphate release (double-mixing stopped flow, MDCC-PbP), apparent association rate constant K9·k′+4 of M·ADP·Pi with actin, from the fast phase against [actin] up to 50 μM [2] [M⁻¹ s⁻¹]	Kd [3] [nM]	koff [3] [s⁻¹]	kon [3] [M⁻¹ s⁻¹]	Kd [4] [nM]	koff [4] [s⁻¹]	kon [4] [M⁻¹ s⁻¹]	actin-activated steady-state ATPase (NADH assay, 10-mM KCl, 20 °C), K ATPase; myosin from the Sf9-UNC45A cell line [1] [mM]	actin-activated steady-state ATPase (NADH assay, 10-mM KCl, 20 °C), K ATPase; myosin from the Sf9-UNC45B cell line [1] [mM]	Substance
0.0061	0.0104	130000	200	0.65	3.18e+06	310	0.55	1.75e+06			EGFP-M15-2IQ motor domain complex (EGFP-M15-2IQ:ELC:RLC) (from UniProt Q9QZZ4-3 1-743; P60661 1-151)
									0.0052	0.007	M15-2IQ-EGFP motor domain complex (M15-2IQ-EGFP:ELC:RLC) (from UniProt Q9QZZ4-3 1-743; P60661 1-151)
